Experimental data published in PMC8634136 (The EMBO Journal, 2021).

T1: MCM3 (human, UniProt P25205-1 1-808)
T1 construct: human MCM3, subunit of hsCMG; the construct lacks the 45 additional N-terminal residues of the longer isoform used in PDB 6XTX; Subunit of the CMG helicase in the replisome structure; source: Hi5 insect cells co-infected with baculoviruses for MCM2-7, GINS and CDC45; purified as hsCMG (Flag M2, Strep-Tactin XT, MonoQ)
T1 sequence: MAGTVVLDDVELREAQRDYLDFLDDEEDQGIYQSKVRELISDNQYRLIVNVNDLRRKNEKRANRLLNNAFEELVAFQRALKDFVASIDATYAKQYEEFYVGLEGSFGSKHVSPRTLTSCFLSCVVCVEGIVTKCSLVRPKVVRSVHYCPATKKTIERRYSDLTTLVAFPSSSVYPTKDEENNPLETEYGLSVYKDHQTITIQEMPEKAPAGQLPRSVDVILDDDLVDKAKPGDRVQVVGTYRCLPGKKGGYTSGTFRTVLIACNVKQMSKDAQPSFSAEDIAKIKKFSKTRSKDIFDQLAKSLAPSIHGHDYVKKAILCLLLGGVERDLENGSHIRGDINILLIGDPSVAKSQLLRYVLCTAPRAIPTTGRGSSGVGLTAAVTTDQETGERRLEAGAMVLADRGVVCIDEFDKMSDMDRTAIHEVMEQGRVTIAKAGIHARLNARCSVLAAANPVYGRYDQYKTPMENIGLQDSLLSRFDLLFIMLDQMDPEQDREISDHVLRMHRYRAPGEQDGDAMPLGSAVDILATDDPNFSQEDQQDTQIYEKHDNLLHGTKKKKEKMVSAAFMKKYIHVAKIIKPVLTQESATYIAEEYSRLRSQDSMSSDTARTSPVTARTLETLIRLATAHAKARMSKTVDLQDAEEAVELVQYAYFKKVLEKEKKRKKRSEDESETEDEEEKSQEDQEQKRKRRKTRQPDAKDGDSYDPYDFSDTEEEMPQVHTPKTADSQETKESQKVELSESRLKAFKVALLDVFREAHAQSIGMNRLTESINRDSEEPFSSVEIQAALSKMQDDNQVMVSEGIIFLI

B1: TIMELESS (natural protein, human)
chain: MDLHMMNCELLATCSALGYLEGDTYHKEPDCLESVKDLIRYLRHEDETRDVRQQLGAAQILQSDLLPILTQHHQDKPLFDAVIRLMVNLTQPALLCFGNLPKEPSFRHHFLQVLTYLQAYKEAFASEKAFGVLSETLYELLQLGWEERQEEDNLLIERILLLVRNILHVPADLDQEKKIDDDASAHDQLLWAIHLSGLDDLLLFLASSSAEEQWSLHVLEIVSLMFRDQNPEQLAGVGQGRLAQERSADFAELEVLRQREMAEKKTRALQRGNRHSRFGGSYIVQGLKSIGERDLIFHKGLHNLRNYSSDLGKQPKKVPKRRQAARELSIQRRSALNVRLFLRDFCSEFLENCYNRLMGSVKDHLLREKAQQHDETYYMWALAFFMAFNRAASFRPGLVSETLSVRTFHFIEQNLTNYYEMMLTDRKEAASWARRMHLALKAYQELLATVNEMDISPDEAVRESSRIIKNNIFYVMEYRELFLALFRKFDERCQPRSFLRDLVETTHLFLKMLERFCRSRGNLVVQNKQKKRRKKKKKVLDQAIVSGNVPSSPEEVEAVWPALAEQLQCCAQNSELSMDSVVPFDAASEVPVEEQRAEAMVRIQDCLLAGQAPQALTLLRSAREVWPEGDVFGSQDISPEEEIQLLKQILSAPLPRQQGPEERGAEEEEEEEEEEEEELQVVQVSEKEFNFLDYLKRFACSTVVRAYVLLLRSYQQNSAHTNHCIVKMLHRLAHDLKMEALLFQLSVFCLFNRLLSDPAAGAYKELVTFAKYILGKFFALAAVNQKAFVELLFWKNTAVVREMTEGYGSLDDRSSSRRAPTWSPEEEAHLRELYLANKDVEGQDVVEAILAHLNTVPRTRKQIIHHLVQMGLADSVKDFQRKGTHIVLWTGDQELELQRLFEEFRDSDDVLGHIMKNITAKRSRARIVDKLLALGLVAERRELYKKRQKKLASSILPNGAESLKDFCQEDLEEEENLPEEDSEEEEEGGSEAEQVQGSLVLSNENLGQSLHQEGFSIPLLWLQNCLIRAADDREEDGCSQAVPLVPLTEENEEAMENEQFQQLLRKLGVRPPASGQETFWRIPAKLSPTQLRRAAASLSQPEEEQKLQPELQPKVPGEQGSDEEHCKEHRAQALRALLLAHKKKAGLASPEEEDAVGKEPLKAAPKKRQLLDSDEEQEEDEGRNRAPELGAPGIQKKKRYQIEDDEDD
notes: Stood in the structure as a subunit of m3; residues 7-803 modelled (527-684 not visualised)
B2: POLE2 (natural protein, human)
chain: MAPERLRSRALSAFKLRGLLLRGEAIKYLTEALQSISELELEDKLEKIINAVEKQPLSSNMIERSVVEAAVQECSQSVDETIEHVFNIIGAFDIPRFVYNSERKKFLPLLMTNHPAPNLFGTPRDKAEMFRERYTILHQRTHRHELFTPPVIGSHPDESGSKFQLKTIETLLGSTTKIGDAIVLGMITQLKEGKFFLEDPTGTVQLDLSKAQFHSGLYTEACFVLAEGWFEDQVFHVNAFGFPPTEPSSTTRAYYGNINFFGGPSNTSVKTSAKLKQLEEENKDAMFVFLSDVWLDQVEVLEKLRIMFAGYSPAPPTCFILCGNFSSAPYGKNQVQALKDSLKTLADIICEYPDIHQSSRFVFVPGPEDPGFGSILPRPPLAESITNEFRQRVPFSVFTTNPCRIQYCTQEITVFREDLVNKMCRNCVRFPSSNLAIPNHFVKTILSQGHLTPLPLYVCPVYWAYDYALRVYPVPDLLVIADKYDPFTTTNTECLCINPGSFPRSGFSFKVFYPSNKTVEDSKLQGF
notes: human POLE2, subunit of Pol ε; residues 1-527 modelled; Purified with POLE1, POLE3 (C-terminal TEV CBP tag) and POLE4
B3: MCM6 (natural protein, human)
chain: MDLAAAAEPGAGSQHLEVRDEVAEKCQKLFLDFLEEFQSSDGEIKYLQLAEELIRPERNTLVVSFVDLEQFNQQLSTTIQEEFYRVYPYLCRALKTFVKDRKEIPLAKDFYVAFQDLPTRHKIRELTSSRIGLLTRISGQVVRTHPVHPELVSGTFLCLDCQTVIRDVEQQFKYTQPNICRNPVCANRRRFLLDTNKSRFVDFQKVRIQETQAELPRGSIPRSLEVILRAEAVESAQAGDKCDFTGTLIVVPDVSKLSTPGARAETNSRVSGVDGYETEGIRGLRALGVRDLSYRLVFLACCVAPTNPRFGGKELRDEEQTAESIKNQMTVKEWEKVFEMSQDKNLYHNLCTSLFPTIHGNDEVKRGVLLMLFGGVPKTTGEGTSLRGDINVCIVGDPSTAKSQFLKHVEEFSPRAVYTSGKASSAAGLTAAVVRDEESHEFVIEAGALMLADNGVCCIDEFDKMDVRDQVAIHEAMEQQTISITKAGVKATLNARTSILAAANPISGHYDRSKSLKQNINLSAPIMSRFDLFFILVDECNEVTDYAIARRIVDLHSRIEESIDRVYSLDDIRRYLLFARQFKPKISKESEDFIVEQYKHLRQRDGSGVTKSSWRITVRQLESMIRLSEAMARMHCCDEVQPKHVKEAFRLLNKSIIRVETPDVNLDQEEEIQMEVDEGAGGINGHADSPAPVNGINGYNEDINQESAPKASLRLGFSEYCRISNLIVLHLRKVEEEEDESALKRSELVNWYLKEIESEIDSEEELINKKRIIEKVIHRLTHYDHVLIELTQAGLKGSTEGSESYEEDPYLVVNPNYLLED
notes: MCM6, human; Stood in the structure as a subunit of m1; source: Hi5 insect cells, purified as a subunit of hsCMG

Experiments:
Settings in all cases: both partners purified
CLASPIN = molecular target: T2, CLASPIN (human, UniProt Q9HAW4 1-1339); assay: cryo-EM structure; replisome reconstituted on fork DNA with AMP-PNP, isolated on a glycerol gradient with glutaraldehyde and BS3; 3.2 Å overall; a sample without CLASPIN solved at 3.4 Å
T2 construct: CLASPIN, human; Only residues 284-319, 525-540 and 592-618 are modelled in the structure; source: Hi5 insect cells (baculovirus), purified (Flag M2, Superose 6)

MCM3 = molecular target: T1, MCM3; assay: cryo-EM structure; core human replisome (100 nM hsCMG with 1.5-fold excess of AND-1, TIMELESS-TIPIN, Pol ε, CLASPIN) on fork DNA with AMP-PNP; glycerol gradient with glutaraldehyde and BS3; consensus map 3.2 Å and multi-body map of Pol ε/CDC45/GINS; PDB 7PFO
TIMELESS = molecular target: B1; assay: cryo-EM structure; replisome reconstituted on fork DNA with AMP-PNP, isolated on a glycerol gradient with glutaraldehyde and BS3; 3.2 Å overall; a sample without CLASPIN solved at 3.4 Å

T2 sequence (Q9HAW4 whole entry, the tested form may be a part): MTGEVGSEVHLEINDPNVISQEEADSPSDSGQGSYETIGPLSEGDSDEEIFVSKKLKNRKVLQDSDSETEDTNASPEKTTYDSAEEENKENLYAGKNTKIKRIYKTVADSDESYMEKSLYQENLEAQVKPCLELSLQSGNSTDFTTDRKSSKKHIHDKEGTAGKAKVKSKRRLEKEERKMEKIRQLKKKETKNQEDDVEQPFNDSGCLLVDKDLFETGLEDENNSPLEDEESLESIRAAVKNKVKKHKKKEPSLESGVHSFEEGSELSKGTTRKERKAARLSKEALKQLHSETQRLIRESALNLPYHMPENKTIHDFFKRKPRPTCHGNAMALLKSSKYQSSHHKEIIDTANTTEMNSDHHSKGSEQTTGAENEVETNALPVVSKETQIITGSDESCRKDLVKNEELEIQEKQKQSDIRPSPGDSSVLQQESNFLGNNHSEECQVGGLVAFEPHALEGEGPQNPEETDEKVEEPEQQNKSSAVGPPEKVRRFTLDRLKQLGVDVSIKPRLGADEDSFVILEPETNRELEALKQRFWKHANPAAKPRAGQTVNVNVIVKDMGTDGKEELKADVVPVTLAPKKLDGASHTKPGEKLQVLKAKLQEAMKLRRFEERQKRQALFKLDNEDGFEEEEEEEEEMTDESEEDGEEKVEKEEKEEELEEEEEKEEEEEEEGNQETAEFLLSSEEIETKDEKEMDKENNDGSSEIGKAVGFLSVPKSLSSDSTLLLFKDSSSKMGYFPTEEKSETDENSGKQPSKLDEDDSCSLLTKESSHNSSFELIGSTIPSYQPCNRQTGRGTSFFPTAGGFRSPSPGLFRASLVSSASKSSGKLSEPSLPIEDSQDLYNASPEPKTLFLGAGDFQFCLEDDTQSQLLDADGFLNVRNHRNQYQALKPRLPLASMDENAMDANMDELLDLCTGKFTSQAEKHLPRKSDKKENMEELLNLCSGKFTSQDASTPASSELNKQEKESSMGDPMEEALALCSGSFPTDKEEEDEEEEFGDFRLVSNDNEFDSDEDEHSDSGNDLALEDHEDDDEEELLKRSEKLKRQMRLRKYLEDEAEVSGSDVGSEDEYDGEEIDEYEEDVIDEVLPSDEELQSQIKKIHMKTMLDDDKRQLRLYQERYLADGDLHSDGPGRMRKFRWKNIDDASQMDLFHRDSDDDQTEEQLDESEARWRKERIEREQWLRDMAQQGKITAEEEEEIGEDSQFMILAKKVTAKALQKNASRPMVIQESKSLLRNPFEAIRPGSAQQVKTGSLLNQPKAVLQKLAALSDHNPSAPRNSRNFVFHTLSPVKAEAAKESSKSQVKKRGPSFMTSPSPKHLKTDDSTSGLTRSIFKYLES

binding result (CLASPIN)	binding result (MCM3)	binding result (TIMELESS)	Binder
binds	–	–	B1
–	binds	–	B2
binds	–	binds	B3
